Experimental data published in the supplement of paper PMC10724198.
Where “and” joins values, the source holds several entries; their conditions need not be identical. Equal entries are not always repeated. ± gives the standard deviation of the averaged measurements.

Assays:
Saccharomyces cerevisiae [1] = test: protein stability index of tFT-peptide fusion in deletion strain of DOA10 (PSI (0-1 scale)); higher = more stable (slower turnover)
Description: (§1)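 MPS profiling in S. cerevisiae of two library types built from selected 12-aa C-degron peptides (IN1, IN2, LN1, LN3, VN2, R1-R5, W1-W3, Atg1 and Rpa12 C-termini): saturation mutagenesis libraries and C-terminal +1 capping libraries (13 aa). Each peptide is fused to the C-terminus of a sfGFP-mCherry timer, after a GGGS linker. Cells are FACS-sorted into 8 mCherry/sfGFP bins and sequenced. PSI runs from 0 (unstable) to 1 (stable), measured once in wild type and in the das1Δ or doa10Δ background.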

Saccharomyces cerevisiae [2] = test: protein stability index of tFT-peptide fusion in wild type (PSI (0-1 scale)); higher = more stable (slower turnover); settings: genetic background: wild type
Description: as §1

Saccharomyces cerevisiae [3] = test: protein stability index of tFT-peptide fusion in deletion strain of DAS1 (PSI (0-1 scale)); higher = more stable (slower turnover)
Description: as §1

Saccharomyces cerevisiae [4] = test: protein stability index of tFT-peptide fusion (C-terminal peptide) (PSI (0-1 scale)); higher = more stable (slower turnover)
Description: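 MPS profiling in S. cerevisiae of the tFT-X12 degron library: putative degron peptides plus stable controls, 12 aa, fused to the C-terminus of a sfGFP-mCherry timer. Cells are FACS-sorted into 8 mCherry/sfGFP bins and deep-sequenced. PSI runs from 0 (unstable) to 1 (stable). Backgrounds are wild type, das1Δ and doa10Δ at 30 °C, and wild type, das1Δ, cdc34-1 and cdc53-1 at 37 °C; 2-3 technical replicates each.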

Saccharomyces cerevisiae [5] = test: as above; settings: genetic background: wild type; temperature: 30 C
[6] = genetic background: cdc34-1, temperature: 37 C
[7] = genetic background: cdc53-1, temperature: 37 C
[8] = genetic background: das1 deletion, temperature: 30 C
[9] = genetic background: das1 deletion, temperature: 37 C
[10] = genetic background: doa10 deletion, temperature: 30 C
[11] = genetic background: wild type, temperature: 30 C
[12] = genetic background: wild type, temperature: 37 C
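For protein stability index of tFT-peptide fusion (C-terminal peptide) in this document: PSI is a weighted mean of sequencing reads over stability bins, variants kept only with over 10 reads, mCherry proximal and sfGFP distal, peptide attached via GGGS linker.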
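For protein stability index of tFT-peptide fusion in deletion strain of DAS1 in this document: PSI is a weighted mean of each variant's read distribution over the sorted stability bins, computed only for variants having over 10 reads in total.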
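For protein stability index of tFT-peptide fusion in deletion strain of DOA10 in this document: PSI per variant is the weighted mean of its sequencing read distribution over the sorted stability bins, counting only variants with over 10 reads summed across bins.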
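For protein stability index of tFT-peptide fusion in wild type in this document: PSI derived as read-weighted mean over the 8 sorting bins, only variants exceeding 10 total reads kept, mCherry placed adjacent to the peptide and sfGFP distal.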

Row | Sequence | protein stability index (Saccharomyces cerevisiae [1]) | protein stability index (Saccharomyces cerevisiae [2]) | protein stability index (Saccharomyces cerevisiae [3]) | further results
1 | AIALPMCPLLLR | 0.632 | 0.231 |  | 
2 | AITHPMCPLLLR | 0.676 | 0.455 |  | 
3 | AITIPMCPLLLR | 0.639 | 0.236 |  | 
4 | AITLFMCPLLLR | 0.644 | 0.364 |  | 
5 | AITLPFCPLLLR | 0.667 | 0.138 |  | 
6 | AITLPKCPLLLR | 0.663 | 0.335 |  | 
7 | AITLPMCCLLLR | 0.602 | 0.139 |  | 
8 | AITLPMCPELLR | 0.674 | 0.663 |  | 
9 | AITLPMCPLDLR | 0.685 | 0.676 |  | 
10 | AITLPMCPLGLR | 0.683 | 0.644 |  | 
11 | AITLPMCPLLAR | 0.343 | 0.311 |  | 
12 | AITLPMCPLLGR | 0.607 | 0.603 |  | 
13 | AITLPMCPLLLRF | 0.615 | 0.121 |  | 
14 | AITLPMCPLLMR | 0.606 | 0.302 |  | 
15 | AITLPMCPLLQR | 0.671 | 0.626 |  | 
16 | AITLPMCPLLWR | 0.634 | 0.326 |  | 
17 | AITLPMCPLMLR | 0.611 | 0.212 |  | 
18 | AITLPMCPLPLR | 0.664 | 0.648 |  | 
19 | AITLPMCPQLLR | 0.688 | 0.64 |  | 
20 | AITLPMCPSLLR | 0.68 | 0.647 |  | 
21 | AITLPMCYLLLR | 0.638 | 0.0897 |  | 
22 | AITLPMIPLLLR | 0.595 | 0.115 |  | 
23 | AITLSMCPLLLR | 0.653 | 0.311 |  | 
24 | AITNPMCPLLLR | 0.658 | 0.488 |  | 
25 | AITRPMCPLLLR | 0.65 | 0.393 |  | 
26 | CHVSLPILLFFR | 0.624 | 0.0491 |  | 
27 | CLVSHPILLFFR | 0.617 | 0.149 |  | 

Row | Sequence | protein stability index (Saccharomyces cerevisiae [1]) | protein stability index (Saccharomyces cerevisiae [2]) | protein stability index (Saccharomyces cerevisiae [3]) | further results
28 | CLVSLPALLFFR | 0.664 | 0.0784 |  | 
29 | CLVSLPIDLFFR | 0.698 | 0.648 |  | 
30 | CLVSLPIFLFFR | 0.591 | 0.0521 |  | 
31 | CLVSLPILLFAR | 0.239 | 0.161 |  | 
32 | CLVSLPILLFER | 0.625 | 0.569 |  | 
33 | CLVSLPILLFFRR | 0.593 | 0.0999 |  | 
34 | CLVSLPILLFRR | 0.66 | 0.43 |  | 
35 | CLVSLPILLFSR | 0.486 | 0.391 |  | 
36 | CLVSLPIRLFFR | 0.658 | 0.0878 |  | 
37 | CLVSLPYLLFFR | 0.64 | 0.0667 |  | 
38 | CLVSLTILLFFR | 0.263 | 0.185 |  | 
39 | CLVSPPILLFFR | 0.651 | 0.0809 |  | 
40 | PDKRNHLIKLLN |  | 0.141 and 0.117 | 0.661 and 0.625 | protein stability index (Saccharomyces cerevisiae [4]; [6]): 0.537 ± 0.022; protein stability index (Saccharomyces cerevisiae [4]; [7]): 0.691 ± 0.03; protein stability index (Saccharomyces cerevisiae [4]; [8]): 0.648 ± 0.029; protein stability index (Saccharomyces cerevisiae [4]; [9]): 0.704 ± 0.0085; protein stability index (Saccharomyces cerevisiae [4]; [10]): 0.0937 ± 0.024; protein stability index (Saccharomyces cerevisiae [4]; [11]): 0.119 ± 0.0097; protein stability index (Saccharomyces cerevisiae [4]; [12]): 0.153 ± 0.031; protein stability index (Saccharomyces cerevisiae [5]): 0.194 ± 0.031
41 | PSLAASFWRVVP |  | 0.539 | 0.688 | 
42 | PSLAATFWRVVG |  | 0.135 | 0.674 | 
43 | PSLACSFWRVVG |  | 0.139 | 0.675 | 
44 | PSLAYSFWRVVG |  | 0.134 | 0.693 | 
45 | PSLDASFWRVVG |  | 0.128 | 0.677 | 
46 | PSLFASFWRVVG |  | 0.109 | 0.694 | 
47 | PSLPASFWRVVG |  | 0.197 | 0.685 | 
48 | PSLRASFWRVVG |  | 0.141 | 0.688 | 
49 | PSRAASFWRVVG |  | 0.149 | 0.691 | 
50 | PSWAASFWRVVG |  | 0.154 | 0.714 | 
51 | PTLAASFWRVVG |  | 0.162 | 0.703 | 
52 | PVLAASFWRVVG |  | 0.161 | 0.68 | 
53 | PYLAASFWRVVG |  | 0.151 | 0.699 | 
54 | QVVYLSCVACIN |  | 0.0122 | 0.0307 | 

Row | Sequence | protein stability index (Saccharomyces cerevisiae [1]) | protein stability index (Saccharomyces cerevisiae [2]) | protein stability index (Saccharomyces cerevisiae [3]) | further results
55 | RCIQPLPVQFLN |  | 0.0766 | 0.572 | 
56 | RLICPLPVQFLN |  | 0.0408 | 0.562 | 
57 | RLIQNLPVQFLN |  | 0.029 | 0.57 | 
58 | RLIQPFPVQFLN |  | 0.09 | 0.778 | 
59 | RLIQPLCVQFLN |  | 0.0777 | 0.605 | 
60 | RLIQPLGVQFLN |  | 0.0859 | 0.66 | 
61 | RLIQPLPCQFLN |  | 0.0496 | 0.587 | 
62 | RLIQPLPVEFLN |  | 0.0996 | 0.586 | 
63 | RLIQPLPVQALN |  | 0.36 | 0.569 | 
64 | RLIQPLPVQDLN |  | 0.6 | 0.576 | 
65 | RLIQPLPVQFCN |  | 0.195 | 0.681 | 
66 | RLIQPLPVQFFN |  | 0.0467 | 0.563 | 
67 | RLIQPLPVQFLD |  | 0.633 | 0.573 | 
68 | RLIQPLPVQFLNR |  | 0.659 | 0.669 | 
69 | RLIQPLPVQFLQ |  | 0.447 | 0.647 | 
70 | RLIQPLPVQFNN |  | 0.554 | 0.6 | 
71 | RLIQPLPVQVLN |  | 0.204 | 0.46 | 
72 | RLIQPLPVQYLN |  | 0.0462 | 0.661 | 
73 | RLIQPLPVSFLN |  | 0.262 | 0.593 | 
74 | RLIQPSPVQFLN |  | 0.0855 | 0.683 | 
75 | RLIQQLPVQFLN |  | 0.0315 | 0.602 | 
76 | RLIRPLPVQFLN |  | 0.0343 | 0.593 | 
77 | RLQQPLPVQFLN |  | 0.0653 | 0.574 | 
78 | RLYQPLPVQFLN |  | 0.068 | 0.586 | 
79 | VRGACGGWRLVG |  | 0.143 | 0.677 | 
80 | VRGAGGGWRLVG |  | 0.209 | 0.663 | 
81 | VRGARGGWRLVG |  | 0.273 | 0.686 | 

Row | Sequence | protein stability index (Saccharomyces cerevisiae [1]) | protein stability index (Saccharomyces cerevisiae [2]) | protein stability index (Saccharomyces cerevisiae [3]) | further results
82 | VRGAVEGWRLVG |  | 0.19 | 0.692 | 
83 | VRGAVFGWRLVG |  | 0.149 | 0.678 | 
84 | VRGAVGFWRLVG |  | 0.16 | 0.687 | 
85 | VRGAVGGHRLVG |  | 0.675 | 0.703 | 
86 | VRGAVGGWLLVG |  | 0.156 | 0.668 | 
87 | VRGAVGGWRAVG |  | 0.365 | 0.67 | 
88 | VRGAVGGWRLAG |  | 0.233 | 0.695 | 
89 | VRGAVGGWRLHG |  | 0.226 | 0.662 | 
90 | VRGAVGGWRLPG |  | 0.683 | 0.681 | 
91 | VRGAVGGWRLVG |  | 0.161 | 0.681 | protein stability index (Saccharomyces cerevisiae [4]; [6]): 0.572 ± 0.059; protein stability index (Saccharomyces cerevisiae [4]; [7]): 0.754 ± 0.032; protein stability index (Saccharomyces cerevisiae [4]; [8]): 0.629 ± 0.013; protein stability index (Saccharomyces cerevisiae [4]; [9]): 0.764 ± 0.016; protein stability index (Saccharomyces cerevisiae [4]; [10]): 0.116 ± 0.028; protein stability index (Saccharomyces cerevisiae [4]; [11]): 0.131 ± 0.028; protein stability index (Saccharomyces cerevisiae [4]; [12]): 0.23 ± 0.0039; protein stability index (Saccharomyces cerevisiae [5]): 0.228 ± 0.082
92 | VRGAVGGWRLVGT |  | 0.678 | 0.689 | 
93 | VRGAVGGWRLVR |  | 0.651 | 0.682 | 
94 | VRGAVGGWRLYG |  | 0.239 | 0.686 | 
95 | VRGAVGWWRLVG |  | 0.163 | 0.665 | 
96 | VRGAVGYWRLVG |  | 0.152 | 0.668 | 
97 | VRGAVNGWRLVG |  | 0.157 | 0.694 | 
98 | VRGAVRGWRLVG |  | 0.146 | 0.7 | 
99 | VRGAVYGWRLVG |  | 0.141 | 0.666 | 
100 | VRGRVGGWRLVG |  | 0.121 | 0.675 | 
101 | VRIAVGGWRLVG |  | 0.11 | 0.68 | 
102 | VRWRVGLWRGAS |  | 0.209 | 0.648 | 
103 | VSMRWTFRYWVN |  | 0.0543 | 0.509 | 
104 | WKILRQKMNHQN |  | 0.244 | 0.678 | 
105 | YRGAVGGWRLVG |  | 0.218 | 0.664 | 
